Assay [1] has as its target T1, rHuman EGF R/Fc Chimera, CF (R&D Systems Cat#344-ER) (human, UniProt P00533 25-645).
T1 construct: Bought Fc chimera; also called ErbB-1; not shown: Fc of the bought chimera
Put plainly: ECL (MSD multi-spot), antigen on plate, Fab 50 nM.

In assay [2] the target is T2, Recombinant Human DLL4 (R&D Systems Cat#1506-D4/CF) (human, UniProt Q9NR61 27-524).
T2 construct: Bought recombinant protein; also called delta-like protein 4
Put plainly: ECL (MSD multi-spot), antigen on plate, Fab 50 nM.

The target in assay [3] is T3, rHuman Erythropoietin R/Fc Chimera, CF (R&D Systems Cat#963-ER) (human, UniProt P19235 25-250).
T3 construct: Bought Fc chimera; also called EPO R/Fc; Epo R; not shown: Fc of the bought chimera
T3 sequence: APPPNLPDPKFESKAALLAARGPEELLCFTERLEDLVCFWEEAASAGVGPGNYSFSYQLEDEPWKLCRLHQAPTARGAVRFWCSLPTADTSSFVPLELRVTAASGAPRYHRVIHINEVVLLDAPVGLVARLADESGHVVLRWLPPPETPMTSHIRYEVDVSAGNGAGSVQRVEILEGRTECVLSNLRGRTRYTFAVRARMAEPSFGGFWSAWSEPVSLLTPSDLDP
Kind of assay: ECL (MSD multi-spot), antigen on plate, Fab 50 nM.

Assay [4] deals with T4, rHuman P-Cadherin/Fc Chimera, CF (R&D Systems Cat#861-PC) (human, UniProt P22223 108-654).
T4 construct: Bought Fc chimera; also called CDH3; not shown: Fc of the bought chimera
Kind of assay: ECL (MSD multi-spot), antigen on plate, Fab 50 nM.

The target in assay [5] is T5, rHuman HGF R/c-MET/Fc Chimera, CF (R&D Systems Cat#358-MT/CF) (human, UniProt P08581 25-932).
T5 construct: Bought Fc chimera; also called HGF R/Fc; not shown: Fc of the bought chimera
Put plainly: ECL (MSD multi-spot), antigen on plate, Fab 50 nM.

Assay [6] addresses T6, rHuman IGF-1 sR (insulin-like growth factor-1 soluble receptor), CF (R&D Systems Cat#391-GR) (human, UniProt P08069 31-932).
T6 construct: Bought soluble receptor; also called IGF-R1
Put plainly: ECL (MSD multi-spot), antigen on plate, Fab 50 nM.

In assay [7] the target is T7, rHuman CD44/Fc Chimera, CF (R&D Systems Cat#3660-CD) (human, UniProt P16070 21-220).
T7 construct: Bought Fc chimera; not shown: Fc of the bought chimera
Put plainly: ECL (MSD multi-spot), antigen on plate, Fab 50 nM.

Assay [8] has as its target T8, rHuman ErbB2/Fc Chimera, CF (R&D Systems Cat#1129-ER) (human, UniProt P04626 23-652).
T8 construct: Bought Fc chimera; also called HER2/neu; not shown: Fc of the bought chimera
Put plainly: ECL (MSD multi-spot), antigen on plate, Fab 50 nM.

The target in assay [9] is T9, rHuman Notch-1/Fc Chimera, CF (R&D Systems Cat#3647-TK) (human, UniProt P46531 19-526).
T9 construct: Bought Fc chimera; not shown: Fc of the bought chimera
Put plainly: ECL (MSD multi-spot), antigen on plate, Fab 50 nM.

Assay [10] deals with T1, rHuman EGF R/Fc Chimera, CF (R&D …). Put plainly: ECL (MSD multi-spot), antigen on plate, Fab 50 nM. This is another data set of the same source.
Assay [11] addresses T2, Recombinant Human DLL4 (R&D Systems …). Kind of assay: ECL (MSD multi-spot), antigen on plate, Fab 50 nM. This is another data set of the same source.
The target of assay [12] is T3, rHuman Erythropoietin R/Fc Chimera, CF …. Kind of assay: ECL (MSD multi-spot), antigen on plate, Fab 50 nM. This is another data set of the same source.
The target of assay [13] is T4, rHuman P-Cadherin/Fc Chimera, CF (R&D …). Kind of assay: ECL (MSD multi-spot), antigen on plate, Fab 50 nM. This is another data set of the same source.
The target in assay [14] is T5, rHuman HGF R/c-MET/Fc Chimera, CF (R&D …). Put plainly: ECL (MSD multi-spot), antigen on plate, Fab 50 nM. The source holds these as a separate data set.
The target in assay [15] is T6, rHuman IGF-1 sR (insulin-like growth …). Put plainly: ECL (MSD multi-spot), antigen on plate, Fab 50 nM. The source holds these as a separate data set.
Assay [16] has as its target T7, rHuman CD44/Fc Chimera, CF (R&D Systems …). Kind of assay: ECL (MSD multi-spot), antigen on plate, Fab 50 nM. The source holds these as a separate data set.
Assay [17] has as its target T8, rHuman ErbB2/Fc Chimera, CF (R&D …). Put plainly: ECL (MSD multi-spot), antigen on plate, Fab 50 nM. This is another data set of the same source.
The target of assay [18] is T9, rHuman Notch-1/Fc Chimera, CF (R&D …). Kind of assay: ECL (MSD multi-spot), antigen on plate, Fab 50 nM. The source holds these as a separate data set.
The target of assay [19] is T10, rHuman HGF R/c-MET/Fc Chimera, CF (R&D Systems Cat#358-MT/CF) (human, UniProt P08581 25-932).
T10 construct: Bought reagent; also called HGF R/Fc; hepatocyte growth factor receptor; Fc part of the bought chimera not given
Put plainly: ECL (MSD multi-spot), antigen spotted on plate; Fab 176.3 nM; blank spot 346.

Assay [20] has as its target T11, rHuman EGF R/Fc Chimera, CF (R&D Systems Cat#344-ER) (human, UniProt P00533 25-645).
T11 construct: Bought reagent; also called epidermal growth factor receptor; Fc part of the bought chimera not given
The description is as above.

Read-outs that look alike come from different tables or passages of the source.
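Note: blank spot per well as comparator with Hit at signal to blank ratio of 4 or more.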

B1: Fab VH1-46_IGHD6-6*01_IGHJ1*01_S102A_S103P_S104F & L6_IGKJ1*01_S30N (Fab, V domains shown)
VH: QVQLVQSGAEVKKPGASVKVSCKASGYTFTSYYMHWVRQAPGQGLEWMGIINPSGGSTSYAQKFQGRVTMTRDTSTSTVYMELSSLRSEDTAVYYCAREEYAPFSAEYFQHWGQGTLVTVSS
VL: EIVLTQSPATLSLSPGERATLSCRASQSVNSYLAWYQQKPGQAPRLLIYDASNRATGIPARFSGSGSGTDFTLTISSLEPEDFAVYYCQQRSNWPPWTFGQGTKVEIKR
notes: Fab
With B1, the ECL signal is 294 ECL signal in assay [1]; 37200 ECL signal in assay [2]; 500 ECL signal in assay [3]; 143 ECL signal in assay [4]; 135 ECL signal in [5]; 240 ECL signal in [6]. The ECL signal in [7] stood at 271 ECL signal; in assay [8], 395 ECL signal; in [9], 279 ECL signal.

B2: Fab VH1-46_IGHD6-6*01_IGHJ1*01_S102A_S103P_S104F & L6_IGKJ1*01_S31K (Fab, V domains shown)
VH: QVQLVQSGAEVKKPGASVKVSCKASGYTFTSYYMHWVRQAPGQGLEWMGIINPSGGSTSYAQKFQGRVTMTRDTSTSTVYMELSSLRSEDTAVYYCAREEYAPFSAEYFQHWGQGTLVTVSS
VL: EIVLTQSPATLSLSPGERATLSCRASQSVSKYLAWYQQKPGQAPRLLIYDASNRATGIPARFSGSGSGTDFTLTISSLEPEDFAVYYCQQRSNWPPWTFGQGTKVEIKR
notes: Fab
As for B2, the ECL signal in assay [10] turned out to be 350 ECL signal; in assay [11], 35300 ECL signal; in assay [12], 574 ECL signal; in assay [13], 411 ECL signal; in assay [14] it was 257 ECL signal; in [15] it was 257 ECL signal. Besides, the ECL signal in assay [16] turned out to be 262 ECL signal; in assay [17], 397 ECL signal; in assay [18], 355 ECL signal.

B3: Fab VH1-46_IGHD3-10*01_IGHJ4*01 & B3_IGKJ1*01 (Fab, V domains shown)
VH: QVQLVQSGAEVKKPGASVKVSCKASGYTFTSYYMHWVRQAPGQGLEWMGIINPSGGSTSYAQKFQGRVTMTRDTSTSTVYMELSSLRSEDTAVYYCAREYYYGSGSYYNDYFDYWGQGTLVTVSS
VL: not shown
notes: also called IGHV1-46*01
Regarding B3, the ECL signal in assay [19] came to 418; in assay [20], 428.

For the origin of these results see US20120058906A1 (published 2012).
